Numbering of substitutions follows the chain as printed. Values belong to the binder of their own block, whether it stands above or below them.
How the values were obtained:
human KLK5 [1] = biological target: T1, human KLK5 (human, UniProt Q9Y337 67-293); test: SPR, BIAcore T200; biotinylated KLK5 captured on chip, peptide as analyte; single cycle kinetics, 1:1 model
T1 construct: also called hKLK5; active KLK5; not shown: C-terminal tag with His tag, encoded by primers 3/4
T1 sequence: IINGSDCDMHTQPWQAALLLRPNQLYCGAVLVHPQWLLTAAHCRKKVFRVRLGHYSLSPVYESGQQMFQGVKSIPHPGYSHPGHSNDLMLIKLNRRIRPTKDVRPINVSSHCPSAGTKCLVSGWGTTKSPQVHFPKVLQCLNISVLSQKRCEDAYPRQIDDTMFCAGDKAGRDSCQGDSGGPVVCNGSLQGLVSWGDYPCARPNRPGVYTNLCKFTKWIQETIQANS
Protocol: In order to measure the binding affinity of the KLK5 inhibitory peptides, surface plasmon resonance analysis was conducted using BIAcore T 200 (GE healthcare). A complementary strand of DNA of a streptavidin conjugate was captured by hybridization on Sensor Chip CAP (GE healthcare) on which single-stranded DNA immobilized. Next, KLK5 biotinylated using EZ-Link NHS-PEG4-Biotin (Thermo Fisher Scientific) was captured at a flow rate of 10 μL/min to immobilize about 10 RU. Thereafter, the KLK5 inhibitory peptide, serially diluted 2-fold with HBS-EP (0.625 to 10 nM), was added thereto as an analyte at a flow rate of 30 μL/min. In the BIAcore T 200 Evaluation software (version 2.0), kon and koff were calculated by analysis using Single cycle kinetics in a simple one-to-one Langmuir binding model. The dissociation constant KD was calculated as a ratio of koff/kₒₙ. Further, multiple KLK5 inhibitory peptides were measured by regenerating Sensor Chip CAP using a Regeneration buffer attached to a Biotin CAPture Kit (GE healthcare) and repeatedly capturing biotinylated KLK5.

human KLK14 = biological target: T2, human KLK14 (human, UniProt Q9P0G3 25-251); test: cell-based or functional assay
T2 sequence: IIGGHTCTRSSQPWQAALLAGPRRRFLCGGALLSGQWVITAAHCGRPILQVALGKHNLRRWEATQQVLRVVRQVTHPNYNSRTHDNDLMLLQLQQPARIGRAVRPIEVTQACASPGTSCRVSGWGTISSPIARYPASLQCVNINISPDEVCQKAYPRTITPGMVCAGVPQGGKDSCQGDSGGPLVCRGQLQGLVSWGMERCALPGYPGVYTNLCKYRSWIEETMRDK

human KLK5 [2] = biological target: T1, human KLK5; test: cell-based or functional assay
human KLK7 = human KLK7 (human, UniProt P49862 30-253); test: cell-based or functional assay
mouse KLK14 = biological target: T3, mouse KLK14 (mouse, UniProt Q8CGR5 24-250); test: cell-based or functional assay
T3 sequence: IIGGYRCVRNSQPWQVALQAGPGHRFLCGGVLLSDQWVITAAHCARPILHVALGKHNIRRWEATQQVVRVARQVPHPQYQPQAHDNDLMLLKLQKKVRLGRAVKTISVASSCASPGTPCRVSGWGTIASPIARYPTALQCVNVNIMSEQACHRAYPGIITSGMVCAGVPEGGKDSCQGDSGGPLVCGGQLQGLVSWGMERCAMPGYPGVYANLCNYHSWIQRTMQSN

mouse KLK5 = biological target: T4, mouse KLK5 (mouse); test: cell-based or functional assay
T4 chain: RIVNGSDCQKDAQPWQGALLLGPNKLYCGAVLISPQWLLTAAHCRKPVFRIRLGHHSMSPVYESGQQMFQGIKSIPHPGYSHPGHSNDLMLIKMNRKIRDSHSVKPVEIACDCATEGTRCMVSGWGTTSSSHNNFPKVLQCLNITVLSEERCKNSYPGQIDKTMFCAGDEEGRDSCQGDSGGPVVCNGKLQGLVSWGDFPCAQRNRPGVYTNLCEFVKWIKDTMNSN

mouse KLK7 = mouse KLK7 (mouse, UniProt Q91VE3 26-249); test: cell-based or functional assay
KLK4 = biological target: T5, KLK4 (human, UniProt Q9Y5K2); test: fluorogenic peptide substrate cleavage, 1 µM inhibitor
T5 construct: commercial enzyme (R&D Systems, 1719-SE); 1 µg/mL in the assay; substrate Boc-Val-Pro-Arg-AMC 100 µM; also called Human KLK4; hKLK4
Protocol: FIG. 3F includes graphs to evaluate the cross-reactivity of each inhibitory peptide with proteases, using the degradation of a peptide substrate as an index. For evaluating the Human KLK1 inhibitory activity, hKLK1 (R&D Systems, Inc., 2337-SE) with a final concentration of 0.1 μg/mL and a substrate peptide Pro-Phe-Arg-MCA (PEPTIDE […], INC., 3096-v) with a final concentration of 100 μM were used. For evaluating the Human KLK2 inhibitory activity, hKLK2 (R&D Systems, Inc., 4104-SE) with a final concentration of 2 μg/mL and a substrate peptide Pro-Phe-Arg-MCA (PEPTIDE […], INC., 3096-v) with a final concentration of 100 μM were used. For evaluating the Human KLK4 inhibitory activity, hKLK4 (R&D Systems, Inc., 1719-SE) with a final concentration of 1 μg/mL and a substrate peptide Boc-Val-Pro-Arg-AMC (R&D Systems, Inc., ES011) with a final concentration of 100 μM were used.
The specificities for other proteases were evaluated using the degradation of a substrate peptide as an index. As in the method described in (3-1), 25 μL each of a protease and a sample diluted with an assay buffer were mixed (to a final concentration of sample of 1 μM), followed by a reaction at 37° C. for 20 minutes. Thereafter, 50 μL of a substrate diluted with an assay buffer was added thereto, and the fluorescence signal was measured using Enspire (PerkinElmer). An assay buffer (50 mM Tris, 150 mM NaCl, pH 8.0) was used for the evaluation of the protease activity, and a PROTEOSAVE® SS96F black plate (Sumitomo Bakelite Co., Ltd.) was used for the reaction and the measurement. The combinations of the protease and the substrate used for the evaluation of the specificity were as follows.

Chain of human KLK7 (P49862 30-253): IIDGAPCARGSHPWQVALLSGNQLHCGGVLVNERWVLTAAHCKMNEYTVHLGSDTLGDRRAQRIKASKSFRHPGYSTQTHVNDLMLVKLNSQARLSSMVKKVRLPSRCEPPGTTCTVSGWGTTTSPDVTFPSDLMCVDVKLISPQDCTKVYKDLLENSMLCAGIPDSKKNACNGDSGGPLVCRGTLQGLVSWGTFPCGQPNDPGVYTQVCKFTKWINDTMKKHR
Chain of mouse KLK7 (Q91VE3 26-249): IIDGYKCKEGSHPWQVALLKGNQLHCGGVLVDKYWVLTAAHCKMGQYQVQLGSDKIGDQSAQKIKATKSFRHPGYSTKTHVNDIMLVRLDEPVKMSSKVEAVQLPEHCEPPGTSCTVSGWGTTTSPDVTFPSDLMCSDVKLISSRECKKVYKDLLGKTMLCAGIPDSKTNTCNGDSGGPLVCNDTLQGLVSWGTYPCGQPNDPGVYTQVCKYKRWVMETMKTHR
T5 sequence (Q9Y5K2 31-254 limits assumed): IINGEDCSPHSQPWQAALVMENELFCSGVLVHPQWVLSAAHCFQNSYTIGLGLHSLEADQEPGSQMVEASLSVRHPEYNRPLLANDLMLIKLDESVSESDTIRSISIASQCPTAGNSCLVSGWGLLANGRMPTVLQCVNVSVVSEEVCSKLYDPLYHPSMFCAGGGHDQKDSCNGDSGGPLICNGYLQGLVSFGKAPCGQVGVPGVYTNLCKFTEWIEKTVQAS

- Kd (human KLK5 [1]): ≤ 0.001 nM
- koff (human KLK5 [1]): ≤ 1e-06 s⁻¹
- kon (human KLK5 [1]): 940000 M⁻¹ s⁻¹
- IC50(nM) for hKLK14 (human KLK14): 72 nM
- IC50(nM) for hKLK5 (human KLK5 [2]): 6.8 nM
- IC50(nM) for hKLK7 (human KLK7): > 1000 nM
- IC50(nM) for mKLK14 (mouse KLK14): 40 nM
- IC50(nM) for mKLK5 (mouse KLK5): < 0.5 nM
- IC50(nM) for mKLK7 (mouse KLK7): 181 nM
- binding result (KLK4): binds
B1: KLK5/KLK14 inhibitory peptide K51069 (peptide)
chain: GPQFGLFSKYRTPNCSQVVETYCNRDYDPVCGSDMSTYANECTLCMKIREGGHNIKIIRNGPCGG
notes: SPINK2 mutant peptide made in E. coli

- Kd (human KLK5 [1]): ≤ 0.0011 nM
- koff (human KLK5 [1]): ≤ 1e-06 s⁻¹
- kon (human KLK5 [1]): 940000 M⁻¹ s⁻¹
- IC50(nM) for hKLK14 (human KLK14): 17 nM
- IC50(nM) for hKLK5 (human KLK5 [2]): 6.8 nM
- IC50(nM) for hKLK7 (human KLK7): > 1000 nM
- IC50(nM) for mKLK14 (mouse KLK14): 108 nM
- IC50(nM) for mKLK5 (mouse KLK5): < 0.5 nM
- IC50(nM) for mKLK7 (mouse KLK7): 248 nM
- binding result (KLK4): binds
B2: KLK5/KLK14 inhibitory peptide K50015 (peptide)
chain: B1 chain with S16Y, Q17D, V18T, V19T, E20T, T21H, N24S, D26E
notes: as for B1
